How the values were obtained:
Ash2LN K225E = Ash2LN K225E (human, UniProt Q9UBL3 95-280, K225E); assay: EMSA
Ash2LN K229E = Ash2LN K229E (human, UniProt Q9UBL3 95-280, K229E); assay: EMSA
Ash2LN K229E, sequence (Q9UBL3 95-280 K229E): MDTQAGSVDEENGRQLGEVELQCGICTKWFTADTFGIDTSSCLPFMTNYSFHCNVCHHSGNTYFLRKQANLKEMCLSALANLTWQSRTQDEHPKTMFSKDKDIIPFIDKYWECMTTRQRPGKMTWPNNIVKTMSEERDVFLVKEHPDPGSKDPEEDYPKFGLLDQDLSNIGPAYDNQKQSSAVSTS

Ash2LN K225E, sequence (Q9UBL3 95-280 K225E): as the sequence (Q9UBL3 95-280 K229E) above, with K131E, E135K counted along it

B1: HS2 (dsDNA)
DNA 1: GCAATGCTGAGTCATGATGAGTCATGCTGAGGCTTAGGGTGTGTGC
DNA 2: GCACACACCCTAAGCCTCAGCATGACTCATCATGACTCAGCATTGC
Q: Does B1 bind (Ash2LN K225E)?
A: no binding

Q: Does B1 bind (Ash2LN K229E)?
A: no binding

Reference: paper PMC3983046
